Measurements: PMC3242593, “Influence of glioma tumour microenvironment on the transport of ANG1005 via low-density lipoprotein receptor-related protein 1” (British Journal of Cancer, 2011)

Tested on: U87 human glioblastoma cells
Assay: [125I]-Angiopep-2 or [125I]-ANG1005 uptake assay in U87 cells (LRP1-mediated endocytosis)
Format: cell-based
Conditions: unlabelled Angiopep-2 50 μM or preincubated RAP 1 μM, percentage of control, quadruplicate
Procedure: In brief, beads were washed twice with 3 ml of PBS on a Whatman filter and resuspended in 60 μl of PBS. Na^125I (1 mCi) from GE Healthcare (Baie d’Urfé, QC, Canada) was added to the bead suspension for 5 min at room temperature. Iodination was initiated by adding 100 μg of peptide (80–100 μl) diluted in 0.1 M phosphate buffer solution, pH 6.5.
In-vitro silencing of LRP1 was carried out by standard methodologies ([Song et al, 2009]). The sequences of oligonucleotides were […]tt (sense) and […]tt (antisense). Human U87 glioblastoma cells were grown to 50% confluence and were transfected with LRP1 silencing RNA (siRNA) using Lipofectamine 2000 (Life Technologies Corporation, Carlsbad, CA, USA) according to the manufacturer's specifications. After 48 h of transfection, cells were used for subsequent assays. Expression of proteins was assessed by western blot analysis.
Cells were incubated in medium in which the sodium bicarbonate had been replaced with Ringer/HEPES buffer (150 mM NaCl, 5.2 mM KCl, 2.2. mM CaCl2, 0.2 mM MgCl2·6H2O, 6 mM NaHCO3, 2.8 mM glucose, and 5 mM HEPES). […]
Cells were seeded in a 24-well plate (5 × 10^4 cells per well) in appropriate media and fed for 3 days. […] Results were quantified with a Wizard 1470 Gamma counter (Perkin-Elmer, Woodbridge, ON, Canada). […]

B1: RAP: receptor-associated protein, a known LRP1 ligand that competitively inhibits uptake of Angiopep-2 (protein, UniProt P30533 35-357, looked up)
Alpha-2-macroglobulin …: YSREKNQPKPSPKRESGEEFRMEKLNQLWEKAQRLHLPPVRLAELHADLKIQERDELAWKKLKLDGLDEDGEKEARLIRNLNVILAKYGLDGKKDARQVTSNSLSGTQEDGLDDPRLEKLWHKAKTSGKFSGEELDKLWREFLHHKEKVHEYNVLLETLSRTEEIHENVISPSDLSDIKGSVLHSRHTELKEKLRSINQGLDRLRRVSHQGYSTEAEFEEPRVIDLWDLAQSANLTDKELEAFREELKHFEAKIEKHNHYQKQLEIAHEKLRHAESVGDGERVSRSREKHALLEGRTKELGYTVKKHLQDLSGRISRARHNEL
  effect of unlabelled competitor on uptake of [125I]-Angiopep-2 (500 nM): inhibited
